The source of these data is patent publication US20080021198.

In this series the target is PP2A A-C hetero-dimer (bovine brain, unmethylated) (UniProt Q32PI5).
PP2A A-C hetero-dimer (bovine brain, unmethylated), sequence (Q32PI5 2-589, chain 1 of 2): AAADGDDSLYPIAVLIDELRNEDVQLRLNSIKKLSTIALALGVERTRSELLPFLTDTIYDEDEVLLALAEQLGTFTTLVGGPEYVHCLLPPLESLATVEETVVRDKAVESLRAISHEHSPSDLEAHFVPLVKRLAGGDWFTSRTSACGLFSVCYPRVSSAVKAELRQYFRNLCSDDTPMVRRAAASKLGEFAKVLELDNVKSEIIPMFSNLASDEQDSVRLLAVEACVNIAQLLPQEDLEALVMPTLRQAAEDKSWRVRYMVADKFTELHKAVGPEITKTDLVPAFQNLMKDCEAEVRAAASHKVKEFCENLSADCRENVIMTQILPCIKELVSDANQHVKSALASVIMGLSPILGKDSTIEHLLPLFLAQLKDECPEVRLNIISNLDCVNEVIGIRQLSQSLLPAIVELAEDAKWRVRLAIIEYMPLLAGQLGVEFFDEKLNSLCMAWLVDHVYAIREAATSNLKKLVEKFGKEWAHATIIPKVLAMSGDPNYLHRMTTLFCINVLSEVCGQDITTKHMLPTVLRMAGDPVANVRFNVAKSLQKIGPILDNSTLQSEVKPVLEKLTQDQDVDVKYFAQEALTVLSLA
PP2A A-C hetero-dimer (bovine brain, unmethylated), sequence (chain, as listed by the source, chain 2 of 2): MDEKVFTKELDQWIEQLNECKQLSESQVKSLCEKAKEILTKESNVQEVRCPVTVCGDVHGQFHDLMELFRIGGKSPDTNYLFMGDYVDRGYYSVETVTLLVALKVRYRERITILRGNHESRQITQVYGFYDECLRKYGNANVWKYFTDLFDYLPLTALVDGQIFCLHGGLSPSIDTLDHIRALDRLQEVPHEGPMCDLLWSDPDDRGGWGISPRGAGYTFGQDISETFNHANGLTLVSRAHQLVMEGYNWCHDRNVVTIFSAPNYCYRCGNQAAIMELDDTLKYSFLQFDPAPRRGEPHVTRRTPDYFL

Take “PMTΔ19 (human PP2A methyl transferase with the N-terminal 19 residues truncated)”: the “enzyme activity (in vitro enzymatic assay, FIG. 7)” value was “Truncation of the N-terminal 19 amino acids did not appear to have any effect on the enzyme activity”.
